Results published in article PMC7072583, “Intracellular Delivery of DNA and Protein by a Novel Cell-Permeable Peptide Derived from DOT1L” (Biomolecules, 2020).
Ends that are not written are not given here. * marks the point of attachment. FITC = O=C1OC2(c3ccc(O)cc3Oc3cc(O)ccc32)c2ccc(NC(=S)*)cc21; Acp = not defined here

Key:
MCF7 cells [1] = assay type: cell-based, human
Protocol: (§1) All types of cells were suspended in 0.5 mL media and seeded at a density of 1.5 × 10^5 cells/well on a 24-well plate for 24 h. After washing with PBS twice, the indicated cells were incubated with indicated concentrations of FITC-CPP-Dot1l, FITC-NCO peptides, or purified protein in 0.5 mL serum-free media/well for 1 h. After incubation, cells were rinsed three times in PBS and then imaged by fluorescence microscopy (Nikon, Tokyo, Japan). To evaluate the cellular uptake efficiency of indicated treatment, the cellular uptake of indicated concentration of CPP was quantified with multimode spectrophotometry (Tecan, Mannedorf, Switzerland). The incubation and wash procedure were the same as above. Cells were then lysed with 0.3 mL/well lysing buffer (0.1 M NaOH) for 10 min and centrifuged at 14,000 rpm for 5 min. The fluorescence intensity in the supernatant was read using Multimode spectrophotometry (Tecan, Mannedorf, Switzerland) at 485 nm excitation and emission at 535 nm. Protein concentration of supernatant was examined by the Bradford protein assay kit following the manufacturer’s recommendation. The fluorescence of cellular uptake is expressed as fluorescence intensity per mg of total cellular protein. Experiments indicated in the text were repeated at least three times.

[2] = test system: MCF7, B16, HSC-T6, Caski, and HepG2; assay: Cellular uptake of FITC-labeled Dot1l peptide in different cell lines; assay type: cell-based, human, mouse, rat
Protocol: as §1

MCF7 and HSC-T6 cells = assay: Comparison of penetration efficiency of different CPPs; assay type: cell-based, human, rat; conditions: Supplementary Figure S2D
Protocol: as §1

MCF7 cells [3] = assay: Uptake mechanism: temperature and endocytosis inhibitors; assay type: cell-based, human
Protocol: as §1
The uptake mechanism of Dot1l in MCF7 cells was examined through endocytosis inhibitors. Peptide incubation at indicated different temperatures was measured to investigate the influence of temperature on peptide internalization (physical means of inhibition of endocytosis). […] The uptake efficiency was detected using the same protocol as the one shown above.

HSC-T6 cells [4] = assay: MTT cytotoxicity assay; assay type: cell-based, rat; conditions: HSC-T6, range of peptide concentrations, 24 h and 48 h, n = 3, p > 0.05
Protocol: (§2) HSC-T6 and MCF7 cells were seeded at a density of 8000 cells/well in 96-well culture plates overnight before incubation. The cells were washed with PBS and were treated with Dot1l or Dot1l/pDNA complexes of different concentrations at the indicated times. After rinsing with PBS, 20 μL of 5 mg/mL MTT in PBS solution were added to 80 μL of serum-free media and incubated for 4 h. After that, the culture medium was discarded and 150 μL of dimethyl sulfoxide (DMSO) were added into each well to dissolve the formazan crystals. The absorbance of DMSO-dissolved solution was read in a Multiskan Spectrum (Thermo Fisher Scientific, Waltham, MA, USA) reader at 490 nm.

MCF7 cells [5] = assay: MTT cytotoxicity assay; assay type: cell-based, human; conditions: MCF7, range of peptide concentrations, 24 h and 48 h, n = 3, p > 0.05
Protocol: as §2

red blood cells (RBC) = assay: Hemolysis assay; assay type: cell-based; conditions: 2.5-10 µM, 2 h, absorbance 450 nm, 0.1% Triton X-100 positive control, n = 3, p > 0.05 vs NC
Protocol: To examine the membrane integrity, red blood cells (RBC) were used to conduct hemolytic analysis. After separation of RBCs by centrifugation for 10 min at 500 rpm, RBCs were collected and carefully washed with PBS. A 20% v/v RBC suspension was used for further experiments. In a typical experiment, 25 μL of RBC suspension were added to 225 μL peptide dilutions at different concentrations. Following 2 h of incubation, samples were centrifuged (500 rpm, 5 min) to discard cells and the membrane fragment. Supernatant samples (50-μL aliquots) were transferred to a clear 96-well plate and hemoglobin absorbance was read at 450 nm. Experimental design contains negative controls and positive controls (RBCs treated with 0.1% Triton X-100).

HSC-T6 cells [6] = assay: Lactate dehydrogenase leakage assay; assay type: cell-based, rat; conditions: HSC-T6, 2.5-10 µM, 1 h, 0.1% TritonX-100 positive control, n = 3, p > 0.05 vs NC
Protocol: (§3) Lactate dehydrogenase (LDH) assay was conducted to measure the release of lactate dehydrogenase from damaged cells. Cells were seeded at a density of 1.5 × 10^5 cells/well to 24-well plates for overnight culture and peptides at indicated concentrations were added as described above. After 1 h incubation, 50 μL of cell-free supernatant were collected and added to each well, including controls and cell-free wells filled with 50 μL of LDH assay buffer. Reaction was conducted at room temperature (RT) for 10 min according to the manufacturer’s recommendations and the Optical Density (OD) was read in a Multiskan Spectrum (Thermo Fisher Scientific) plate reader at 570 nm.

MCF7 cells [7] = assay: Lactate dehydrogenase leakage assay; assay type: cell-based, human; conditions: MCF7, different concentrations, 1 h; Supplementary Figure S4A
Protocol: as §3

[8] = Flow cytometry analysis of cell cycle and cell apoptosis; assay type: cell-based; conditions: 10 μM peptide
Protocol: Cells and Dot1l peptide (10 μM), following the same method as described before, were plated with treatment in a six-well plate format. Cells were then harvested and pelleted in washing steps with PBS three times by centrifuging for 5 min at 1023 rpm. The supernatant was removed, and cells were resuspended in PBS. Cells were then fixed in 70% cold ethanol in PBS for 30 min. After washing three times with PBS, the fixed cells were stained with 0.5 mL PI/RNase A solution or with the Annexin-V/PI Apoptosis Detection Kit (Elabscience, Wuhan, China), following the recommended methods. Quantification of cell cycle states or cell apoptosis was acquired by fluorescence of each sample in BD FACSVerse™ flow cytometer.

## FITC-(Acp)-KARKKKLNKKGRKMAGRKRGRPKK ({FITC-Acp}-KARKKKLNKKGRKMAGRKRGRPKK; reading uncertain) [Dot1l, FITC-labeled 24-residue arginine-rich cell-penetrating peptide derived from human Dot1l protein]
MCF7 cells [1]
  Fluorescence signal after trypan blue quenching of cell periphery signal: the fluorescence signal persisted
  Intracellular fluorescence signal with 5% DMSO pretreatment: highly increased
  Penetration efficiency with longer incubation time: not promoted
[2]; 5% DMSO pretreatment, Supplementary Figure S1C
  Penetration in different cell lines after 5% DMSO pretreatment: significantly increased
[2]; MCF7, B16, HSC-T6, Caski, HepG2, non-DMSO pretreatment condition
  Penetration in different cell lines: could penetrate into all different cell lines efficiently without apparent cell line specificity
MCF7 and HSC-T6 cells
  Penetration efficiency compared with other CPPs: weaker than hPP10, but significantly higher than that of TAT and MT23
MCF7 cells [3]; MCF7, 5 μM wartmannin (PI-3 kinase blocking agent)
  Internalization with wartmannin compared with control: no significant differences
MCF7 cells [3]; MCF7, 40 µM sodium azide (oxidative phosphorylation inhibitor)
  Internalization with sodium azide: not blocked
MCF7 cells [3]; MCF7, 50 μg/mL heparin (HSPG competitor)
  Uptake with heparin: could not block Dot1l uptake efficiently
MCF7 cells [3]; MCF7, 5 mM MβCD (lipid raft-mediated endocytosis inhibitor)
  Internalization with MβCD compared with control: no significant differences
MCF7 cells [3]; MCF7, 50 mM ammonium chloride (anti-acidification agent of endocytic vesicles)
  Internalization with ammonium chloride: not blocked
MCF7 cells [3]; MCF7, 450 mM sucrose (clathrin-dependent endocytosis inhibitor)
  Internalization with hyperosmotic sucrose compared with control: no significant differences
MCF7 cells [3]; MCF7, means ± SEM (n = 3)
  Fluorescence intensity at 37 °C compared with 4 °C: no apparent differences
  Fluorescence intensity at 37 °C compared with 25 °C: significantly higher
MCF7 cells [3]; MCF7, serum (10% FBS)
  Internalization in the presence of serum containing incubation medium: blocked
HSC-T6 cells [4]
  Inhibition of cell growth (MTT): no significant inhibition
MCF7 cells [5]
  Inhibition of cell growth (MTT): no significant inhibition
Red blood cells (RBC)
  Membrane disturbance (hemolysis): no membrane disturbance
HSC-T6 cells [6]
  Membrane disturbance (LDH release): no membrane disturbance
MCF7 cells [7]
  Membrane disturbance (LDH release): no membrane disturbance
[8]; Annexin-V/PI
  Cell apoptosis, control vs peptide treatment: did not show significant differences
[8]; PI/RNase A staining
  Cell cycle, control vs peptide treatment: did not show significant differences
